The data set concerns Escherichia coli TOP10. In words: shrunken log2 fold change of peptide-encoding DNA abundance (4.5 h post-induction vs induction); higher = less antimicrobial activity (less host growth inhibition). As to conditions: time post-induction: 4.5 h; library: site-saturation at positions 5, 18, 19, 20.
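Also: peptides expressed intracellularly from a pBAD plasmid library in pooled LB shake-flask culture, induced with 0.3% L-arabinose, DNA abundance read by NGS, three biological replicates, DESeq2 with apeglm shrinkage.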

Take RRIRQRPPRLPRPRPRPRDLPRP: the “shrunken log2 fold change” value was found to be 0.412. As for RRIRGRPPRLPRPRPRPCMYPRP, the “shrunken log2 fold change” value is 0.013. Take RRIRIRPPRLPRPRPRPQITPRP: the “shrunken log2 fold change” value is -1.22. Then RRIRNRPPRLPRPRPRPSAFPRP, with -0.249; and RRIRRRPPRLPRPRPRPAKMPRP, with 0.113. With RRIRPRPPRLPRPRPRPDRRPRP, the “shrunken log2 fold change” value is 0.192. Then RRIRLRPPRLPRPRPRPEIWPRP, with 0.198; and RRIRFRPPRLPRPRPRPRWFPRP, with -0.111. As for RRIRARPPRLPRPRPRPYAQPRP, the “shrunken log2 fold change” value is -0.181. Under RRIRERPPRLPRPRPRPWLAPRP stands 0.564; under RRIRERPPRLPRPRPRPSKTPRP, -0.0833; under RRIRYRPPRLPRPRPRPGIFPRP, -0.708. As for RRIRCRPPRLPRPRPRPKICPRP, the “shrunken log2 fold change” value is -0.0571. For the sequence RRIRMRPPRLPRPRPRPGMTPRP, the “shrunken log2 fold change” value is 1.47. Then RRIRERPPRLPRPRPRPKTCPRP, with -0.267; and RRIRHRPPRLPRPRPRPFYVPRP, with 2.94; and RRIRFRPPRLPRPRPRPTWAPRP, with 0.0327. Under RRIRSRPPRLPRPRPRPTWSPRP stands -0.0422; under RRIRYRPPRLPRPRPRPPGCPRP, 0.334; under RRIRHRPPRLPRPRPRPWFFPRP, -0.379.

Take RRIRVRPPRLPRPRPRPLMFPRP: the “shrunken log2 fold change” value is -0.449. RRIRKRPPRLPRPRPRPVPKPRP: the “shrunken log2 fold change” value was 0.289. RRIRWRPPRLPRPRPRPQRWPRP: the “shrunken log2 fold change” value worked out at 0.308. In the case of RRIRVRPPRLPRPRPRPMTSPRP, the “shrunken log2 fold change” value is -0.128. In the case of RRIRHRPPRLPRPRPRPSKSPRP, the “shrunken log2 fold change” value was -0.143. With RRIRSRPPRLPRPRPRPQVVPRP, the “shrunken log2 fold change” value is -0.144. Then RRIRTRPPRLPRPRPRPSQMPRP, with -0.607. Regarding RRIRNRPPRLPRPRPRPKKGPRP, the “shrunken log2 fold change” value was found to be 0.0558. Then RRIRTRPPRLPRPRPRPFQEPRP, with 0.00783. For the sequence RRIRERPPRLPRPRPRPWFYPRP, the “shrunken log2 fold change” value was -0.985. As to RRIRARPPRLPRPRPRPWCTPRP, the “shrunken log2 fold change” value is -0.284.

Turning to RRIRFRPPRLPRPRPRPGIIPRP, the “shrunken log2 fold change” value is -0.139. Consider RRIRNRPPRLPRPRPRPIDAPRP, for which the “shrunken log2 fold change” value stood at 0.0153. Then RRIRVRPPRLPRPRPRPKIKPRP, with -0.303; and RRIRIRPPRLPRPRPRPVKFPRP, with -0.0946. Consider RRIRPRPPRLPRPRPRPIHRPRP, for which the “shrunken log2 fold change” value was -0.0135. As to RRIRVRPPRLPRPRPRPAMAPRP, the “shrunken log2 fold change” value came out at 0.418. Then RRIRRRPPRLPRPRPRPLQLPRP, with -0.101. Take RRIRRRPPRLPRPRPRPEMCPRP: the “shrunken log2 fold change” value worked out at 0.11. With RRIRSRPPRLPRPRPRPIDRPRP, the “shrunken log2 fold change” value came to 0.0178.

Turning to RRIRYRPPRLPRPRPRPFVIPRP, the “shrunken log2 fold change” value is -0.31. Under RRIRNRPPRLPRPRPRPDKWPRP stands -0.258. Under RRIRQRPPRLPRPRPRPPFLPRP stands 0.186; under RRIRRRPPRLPRPRPRPSQCPRP, 0.0735; under RRIRLRPPRLPRPRPRPKYQPRP, -0.141. Turning to RRIRRRPPRLPRPRPRPDFEPRP, the “shrunken log2 fold change” value was found to be 0.552. On to RRIRMRPPRLPRPRPRPVHGPRP, for which the “shrunken log2 fold change” value is 0.32. Regarding RRIRVRPPRLPRPRPRPWIQPRP, the “shrunken log2 fold change” value amounted to 0.0857. Then RRIRHRPPRLPRPRPRPVYSPRP, with -0.0167; and RRIRCRPPRLPRPRPRPEINPRP, with 0.122. On to RRIRWRPPRLPRPRPRPSDFPRP, for which the “shrunken log2 fold change” value worked out at 0.0215. With RRIRPRPPRLPRPRPRPYHLPRP, the “shrunken log2 fold change” value was -1.07. Consider RRIRTRPPRLPRPRPRPTACPRP, for which the “shrunken log2 fold change” value worked out at 0.277. For RRIRTRPPRLPRPRPRPMFPPRP, the “shrunken log2 fold change” value was determined as 0.0617. Take RRIRFRPPRLPRPRPRPCNCPRP: the “shrunken log2 fold change” value was -0.166. Regarding RRIRDRPPRLPRPRPRPQPDPRP, the “shrunken log2 fold change” value turned out to be 0.177. For RRIRRRPPRLPRPRPRPNIHPRP, the “shrunken log2 fold change” value is 0.564. As for RRIRGRPPRLPRPRPRPQPTPRP, the “shrunken log2 fold change” value worked out at 1.02. Under RRIRWRPPRLPRPRPRPVDWPRP stands 2.21; under RRIRVRPPRLPRPRPRPLRVPRP, 0.543.

With RRIRGRPPRLPRPRPRPPSIPRP, the “shrunken log2 fold change” value was found to be 0.519.

Consider RRIRPRPPRLPRPRPRPSRFPRP, for which the “shrunken log2 fold change” value came out at 0.227. In the case of RRIRTRPPRLPRPRPRPRDIPRP, the “shrunken log2 fold change” value is -0.0222. Turning to RRIRFRPPRLPRPRPRPLEWPRP, the “shrunken log2 fold change” value is 0.0696.

As to RRIRHRPPRLPRPRPRPTRCPRP, the “shrunken log2 fold change” value was -0.00896. Take RRIRIRPPRLPRPRPRPPDKPRP: the “shrunken log2 fold change” value is -0.0243. With RRIRQRPPRLPRPRPRPAVRPRP, the “shrunken log2 fold change” value is -0.0154. Then RRIRLRPPRLPRPRPRPVFDPRP, with -0.251. Regarding RRIRIRPPRLPRPRPRPWAKPRP, the “shrunken log2 fold change” value was -0.235. As to RRIRKRPPRLPRPRPRPDIWPRP, the “shrunken log2 fold change” value worked out at 0.211.

In the case of RRIRQRPPRLPRPRPRPCNPPRP, the “shrunken log2 fold change” value is -0.0715. Consider RRIRNRPPRLPRPRPRPTHMPRP, for which the “shrunken log2 fold change” value was 0.0687. Then RRIRFRPPRLPRPRPRPPNWPRP, with 0.211. On to RRIRLRPPRLPRPRPRPQIQPRP, for which the “shrunken log2 fold change” value is -0.0697. With RRIRWRPPRLPRPRPRPGWWPRP, the “shrunken log2 fold change” value came out at 0.336. For RRIRNRPPRLPRPRPRPERQPRP, the “shrunken log2 fold change” value was 0.221. Consider RRIRHRPPRLPRPRPRPKCGPRP, for which the “shrunken log2 fold change” value was found to be 0.0031. With RRIRFRPPRLPRPRPRPTKAPRP, the “shrunken log2 fold change” value is 0.0916. Under RRIRNRPPRLPRPRPRPLPWPRP stands 0.00924; under RRIRWRPPRLPRPRPRPINGPRP, -0.0517.

Consider RRIRERPPRLPRPRPRPATCPRP, for which the “shrunken log2 fold change” value was -0.292. Regarding RRIRGRPPRLPRPRPRPSVVPRP, the “shrunken log2 fold change” value stood at 0.658. In the case of RRIRIRPPRLPRPRPRPSQIPRP, the “shrunken log2 fold change” value is -0.142. On to RRIRERPPRLPRPRPRPEAKPRP, for which the “shrunken log2 fold change” value came out at 0.0152.

For the sequence RRIRHRPPRLPRPRPRPQFDPRP, the “shrunken log2 fold change” value came to 0.0132.

In the case of RRIRYRPPRLPRPRPRPSCAPRP, the “shrunken log2 fold change” value is -0.921.

Take RRIRSRPPRLPRPRPRPIWDPRP: the “shrunken log2 fold change” value amounted to 0.309. In the case of RRIRPRPPRLPRPRPRPRCGPRP, the “shrunken log2 fold change” value was 0.282. Regarding RRIRMRPPRLPRPRPRPEPIPRP, the “shrunken log2 fold change” value worked out at 0.0584. RRIRDRPPRLPRPRPRPMGWPRP: the “shrunken log2 fold change” value is 0.476. As for RRIRQRPPRLPRPRPRPRCVPRP, the “shrunken log2 fold change” value worked out at 1.47.

As to RRIRPRPPRLPRPRPRPGKDPRP, the “shrunken log2 fold change” value is 0.0142. Then RRIRARPPRLPRPRPRPCVIPRP, with 0.158.

Regarding RRIRHRPPRLPRPRPRPVYQPRP, the “shrunken log2 fold change” value was -0.359.

For RRIRFRPPRLPRPRPRPCQLPRP, the “shrunken log2 fold change” value is -0.938. Then RRIRCRPPRLPRPRPRPFIRPRP, with -0.249. Regarding RRIRRRPPRLPRPRPRPGSVPRP, the “shrunken log2 fold change” value worked out at 0.299. On to RRIRDRPPRLPRPRPRPYCDPRP, for which the “shrunken log2 fold change” value was -0.181. With RRIRVRPPRLPRPRPRPPGQPRP, the “shrunken log2 fold change” value turned out to be 0.266. Turning to RRIRVRPPRLPRPRPRPDPFPRP, the “shrunken log2 fold change” value was determined as 0.0836. Consider RRIRRRPPRLPRPRPRPNFDPRP, for which the “shrunken log2 fold change” value is -0.102. Turning to RRIRLRPPRLPRPRPRPTDNPRP, the “shrunken log2 fold change” value is -0.391.

Consider RRIRIRPPRLPRPRPRPSKKPRP, for which the “shrunken log2 fold change” value was -0.229. Then RRIRDRPPRLPRPRPRPFKQPRP, with -0.235; and RRIRLRPPRLPRPRPRPHTQPRP, with -0.31; and RRIRIRPPRLPRPRPRPMARPRP, with -0.153. As to RRIRPRPPRLPRPRPRPWVYPRP, the “shrunken log2 fold change” value is -0.227. RRIRVRPPRLPRPRPRPTQHPRP: the “shrunken log2 fold change” value is 0.155. Turning to RRIRPRPPRLPRPRPRPMLTPRP, the “shrunken log2 fold change” value is -0.333. As for RRIRGRPPRLPRPRPRPEEQPRP, the “shrunken log2 fold change” value was -0.00213. In the case of RRIRDRPPRLPRPRPRPQSYPRP, the “shrunken log2 fold change” value is -0.495. In the case of RRIRYRPPRLPRPRPRPDYGPRP, the “shrunken log2 fold change” value was -0.205. Then RRIRKRPPRLPRPRPRPQGYPRP, with -0.0839; and RRIRKRPPRLPRPRPRPKEWPRP, with 0.222. Take RRIRTRPPRLPRPRPRPNHHPRP: the “shrunken log2 fold change” value was -0.687. Under RRIRFRPPRLPRPRPRPKKAPRP stands 0.173. Under RRIRDRPPRLPRPRPRPGMSPRP stands 0.0134; under RRIRDRPPRLPRPRPRPQPCPRP, -0.0957. On to RRIRGRPPRLPRPRPRPIWCPRP, for which the “shrunken log2 fold change” value was determined as 0.0438. Under RRIRHRPPRLPRPRPRPMMVPRP stands -0.0274; under RRIRVRPPRLPRPRPRPDTVPRP, -0.186; under RRIRLRPPRLPRPRPRPMQDPRP, 0.0525.

RRIRHRPPRLPRPRPRPVYTPRP: the “shrunken log2 fold change” value was -0.206. Then RRIRIRPPRLPRPRPRPQTRPRP, with -0.196; and RRIRDRPPRLPRPRPRPYHAPRP, with -0.0316.
